Patent publication US6255088A, “Enzymatic sulfation of biomolecules” (The Scripps Research Institute, priority 1999, dated 2001)

B1: βAST-IV (Rattus norvegicus) (protein)
chain: MEFSRPPLVHVKGIPLIKYFAETIGPLQNFTAWPDDLLISTYPKSGTTWMSEILDMIYQGGKLEKCGRAPIYARVPFLEFKCPGVPSGLETLEETPAPRLLKTHLPLSLLPQSLLDQKVKVIYIARNAKDVVVSYYNFYNMAKLHPDPGTWDSFLENFMDGEVSYGSWYQHVKEWWELRHTHPVLYLFYEDIKENPKREIKKILEFLGRSLPEETVDSIVHHTSFKKMKENCMTNYTTIPTEIMDHNVSPFMRKGTTGDWKNTFTVAQNERFDAHYAKTMTDCDFKFRCEL
notes: made in house; host or cells: E. coli BL21(DE3)
B2: NodST (Sinorhizobium meliloti 1021) (protein)
chain: MTHSTLPPQPFAILAMPRTGTHYLEELVNEHPNVLSNGELLNTYDTNWPDKERLLLSDRELLERAFLRYPPHSDKKVTHVGCKINEPQFQERPSFFAELTAWPGLKVILVIRRNTLESLRSFVQARQTRQWLKFKSDSSAPPPPVMLPFATCEAYFKAADDFHARVVYAFDSSRIRLIEYERLLRDPVPCVATVLDFLGAPALQLADRGILRRQETRPLDQTVRNFHELRVHFANGPYARFFELAND

Key:
[1] = substrate: Nc1ncnc2c1ncn2[C@@H]1O[C@H](COP(=O)(O)O)[C@@H](OP(=O)(O)O)[C@H]1O; assay: Reverse-physiological reaction of βAST-IV (PAPS from PAP and p-nitrophenyl sulfate); assay type: biochemical, rat; conditions: other: 10 mM p-nitrophenyl sulfate, pH 7.0, 25° C., FIG. 6 legend
Protocol: All capillary zone electrophoresis (CZE) was run in 0.23 M borate in running buffer at pH 7.8. The column was pre-washed with H2 O (1 min), 1 N NaOH (1 min), and running buffer (2 min). The sample was pressure injected at 20 psi sec and electrophoresis was run with 20.0 kV (- to +) at 20° C. with detection at 260 nm. CZE of 1 mM standards PAPS, PAP, and 3'-adenosine monophosphate (3'-AMP) were run to determine retention times. The reverse-physiological reaction assay mixture, a 500 μL solution containing 50 mM bis-tris propane-HCl buffer at pH 7.0, 1 mM 2-mercaptoethanol, 10 mM p-nitrophenyl sulfate, and 1 mM PAP at 25° C., was subjected to CZE prior to addition of enzyme (t=0). 5 mU βAST-IV was added and CZE was repeated 30 minutes after initiation. The reaction was then diluted 100-fold and CZE was run again. A 2.0 μL internal standard of 10 mM PAPS was added, and CZE was repeated.
βAST-IV activity in the reverse-physiological reaction was determined at 25° C. with a total volume of 500 μL. The reverse-physiological assay above was used with varying PAP concentration (15.6, 31.3, 62.5, 125, 250, 500 μM). Measurement of initial velocity was conducted over 10 seconds at 400 nm, and an extinction coefficient of 1064 was used to calculate p-nitrophenol concentration at pH 7.0. […]

[2] = substrate: CC(=O)N[C@H]1[C@H](O[C@H]2[C@H](O)[C@@H](NC(C)=O)C(O)O[C@@H]2CO)O[C@H](CO)[C@@H](O[C@@H]2O[C@H](CO)[C@@H](O[C@@H]3O[C@H](CO)[C@@H](O)[C@H](O)[C@H]3NC(C)=O)[C@H](O)[C@H]2NC(C)=O)[C@@H]1O; assay: Continuous spectrophotometric coupled-enzyme assay of NodST with βAST-IV PAPS regeneration; assay type: biochemical, Rhizobium melioti; conditions: other: apparent value, coupled assay, 20 μM PAPS, pH 7.0
Protocol: (§1) 100 mM bis-tris propane-HCl, pH 7.0, 5 mM 2-mercaptoethanol, 20 μM PAPS, 2 mM p-nitrophenyl sulfate, 3.0 mU NodST, 6.4 mU β-AST IV, and substrate are combined to a total volume of 500 μL. Because commercial PAPS contains significant amounts of PAP, the assay solution is incubated for 30 minutes at 20° C. prior to addition of substrate. The evolution of p-nitrophenol is monitored at 400 nm for 10 minutes.
(§2) All reactions were run in a total volume of 500 μL at 25° C. […] The amount of NodST added to each series of acceptor concentrations is varied over 1.2, 1.8, 3.0, and 4.2 mU. Because commercial PAPS contains significant amounts of PAP, the assay solution is incubated for 30 minutes at 20° C. prior to addition of substrate. The evolution of p-nitrophenol is monitored at 400 nm for 10 minutes.
(§3) 3.0 mU of NodST was used in each reaction. The Km for each series of PAP concentrations was calculated and the values were compared.

[3] = substrate: CC(=O)N[C@H]1[C@H](O[C@H]2[C@H](O)[C@@H](NC(C)=O)[C@H](O[C@H]3[C@H](O)[C@@H](NC(C)=O)C(O)O[C@@H]3CO)O[C@@H]2CO)O[C@H](CO)[C@@H](O[C@@H]2O[C@H](CO)[C@@H](O[C@@H]3O[C@H](CO)[C@@H](O)[C@H](O)[C@H]3NC(C)=O)[C@H](O)[C@H]2NC(C)=O)[C@@H]1O; assay: as above; assay type: biochemical, Rhizobium melioti; conditions: other: coupled assay; pH 7.0
Protocol: as §1, §2, §3

[4] = substrate: CC(=O)N[C@H]1[C@H](O[C@H]2[C@H](O)[C@@H](NC(C)=O)C(O)O[C@@H]2CO)O[C@H](CO)[C@@H](O[C@@H]2O[C@H](CO)[C@@H](O)[C@H](O)[C@H]2NC(C)=O)[C@@H]1O; assay: purified protein, by the assay type; conditions: pH 7.0
[5] = other: apparent value, coupled assay, 20 μM PAPS

Protein	Km [1] [µM]	Km [2] [µM]	kcat [2] [s⁻¹]	Km [3] [μμM]	Km ([4]; other: 20, 40 and 100 μM PAPS, all three within 10% variation, 3.0 mU NodST) [µM]	Km [4, 5] [µM]	kcat [4, 5] [s⁻¹]
B1	26.4 ± 3.4						
B2		20.4 ± 3.6	0.328 ± 0.013	98.1	243	103	0.458
